For data set [1], the target named is wild-type human tau overexpressed in H4-tau cells.
For data set [2], the target named is endogenous tau of rat primary nerve cells, P19332.
Sequence of endogenous tau of rat primary nerve cells, P19332 (P19332 2-752): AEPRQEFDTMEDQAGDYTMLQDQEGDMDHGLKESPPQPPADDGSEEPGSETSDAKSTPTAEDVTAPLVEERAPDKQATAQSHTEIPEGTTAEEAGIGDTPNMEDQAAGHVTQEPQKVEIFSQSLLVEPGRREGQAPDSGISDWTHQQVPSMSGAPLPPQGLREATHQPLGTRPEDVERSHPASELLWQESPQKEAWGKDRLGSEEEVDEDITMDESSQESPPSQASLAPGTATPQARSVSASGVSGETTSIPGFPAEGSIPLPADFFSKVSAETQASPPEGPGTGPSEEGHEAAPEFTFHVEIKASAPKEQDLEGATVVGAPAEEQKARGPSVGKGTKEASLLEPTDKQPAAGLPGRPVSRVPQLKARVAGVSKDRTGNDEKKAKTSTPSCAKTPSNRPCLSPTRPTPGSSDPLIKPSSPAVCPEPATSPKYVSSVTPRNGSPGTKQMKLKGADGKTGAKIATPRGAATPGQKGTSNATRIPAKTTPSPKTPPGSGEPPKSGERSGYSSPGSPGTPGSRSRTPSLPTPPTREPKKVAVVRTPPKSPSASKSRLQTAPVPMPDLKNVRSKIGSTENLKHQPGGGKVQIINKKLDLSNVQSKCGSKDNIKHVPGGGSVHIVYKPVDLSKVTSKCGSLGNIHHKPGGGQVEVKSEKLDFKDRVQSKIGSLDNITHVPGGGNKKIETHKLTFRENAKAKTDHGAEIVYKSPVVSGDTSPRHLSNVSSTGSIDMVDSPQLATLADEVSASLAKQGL

B1: human PRKX (hPRKXkai), overexpressed from pPRKXkai plasmid or PRKX overexpression lentivirus (protein)
chain: MEAPGLAQAAAAESDSRKVAEETPDGAPALCPSPEALSPEPPVYSLQDFDTLATVGTGTFGRVHLVKEKTAKHFFALKVMSIPDVIRLKQEQHVHNEKSVLKEVSHPFLIRLFWTWHDERFLYMLMEYVPGGELFSYLRNRGRFSSTTGLFYSAEIICAIEYLHSKEIVYRDLKPENILLDRDGHIKLTDFGFAKKLVDRTWTLCGTPEYLAPEVIQSKGHGRAVDWWALGILIFEMLSGFPPFFDDNPFGIYQKILAGKIDFPRHLDFHVKDLIKKLLVVDRTRRLGNMKNGANDVKHHRWFRSVDWEAVPQRKLKPPIVPKIAGDGDTSNFETYPENDWDTAAPVPQKDLEIFKNF
As to B1, in data set [1], the “S214 phosphorylation of tau, Western blot, 0.02 µg PRKX expression plasmid” value was 1.3-fold, 1.9-fold and 2.9-fold enhanced S214 phosphorylation was found in the cells incorporating 0.02 µg, 0.06 µg and 0.2 µg of PRKX expression plasmid, respectively; the “S214 phosphorylation of tau, Western blot, 0.06 µg PRKX expression plasmid” value was 1.3-fold, 1.9-fold and 2.9-fold enhanced S214 phosphorylation was found in the cells incorporating 0.02 µg, 0.06 µg and 0.2 µg of PRKX expression plasmid, respectively; the “S214 phosphorylation of tau, Western blot, 0.2 µg PRKX expression plasmid” value was 1.3-fold, 1.9-fold and 2.9-fold enhanced S214 phosphorylation was found in the cells incorporating 0.02 µg, 0.06 µg and 0.2 µg of PRKX expression plasmid, respectively; the “amount of S214 phosphorylated tau in the total tau, ELISA, 0.02 µg PRKX expression plasmid” value was 2.5-fold, 3.4-fold and 5.8-fold enhanced S214 phosphorylation was found in the cells incorporating 0.02 µg, 0.06 µg and 0.2 µg of PRKX expression plasmid, respectively. In data set [1], the “amount of S214 phosphorylated tau in the total tau, ELISA, 0.06 µg PRKX expression plasmid” value is 2.5-fold, 3.4-fold and 5.8-fold enhanced S214 phosphorylation was found in the cells incorporating 0.02 µg, 0.06 µg and 0.2 µg of PRKX expression plasmid, respectively; the “amount of S214 phosphorylated tau in the total tau, ELISA, 0.2 µg PRKX expression plasmid” value was 2.5-fold, 3.4-fold and 5.8-fold enhanced S214 phosphorylation was found in the cells incorporating 0.02 µg, 0.06 µg and 0.2 µg of PRKX expression plasmid, respectively. Further, in data set [2], the “amount of S214 phosphorylated tau, ELISA, PRKX lentivirus MOI 1” value was 3.0-fold, 4.2-fold and 6.3-fold enhanced amounts of S214 phosphorylated tau were found in the cells infected with PRKX overexpression lentivirus at MOI-1, 3 and 6, respectively; the “amount of S214 phosphorylated tau, ELISA, PRKX lentivirus MOI 3” value is 3.0-fold, 4.2-fold and 6.3-fold enhanced amounts of S214 phosphorylated tau were found in the cells infected with PRKX overexpression lentivirus at MOI-1, 3 and 6, respectively; the “amount of S214 phosphorylated tau, ELISA, PRKX lentivirus MOI 6” value was 3.0-fold, 4.2-fold and 6.3-fold enhanced amounts of S214 phosphorylated tau were found in the cells infected with PRKX overexpression lentivirus at MOI-1, 3 and 6, respectively.

B2: inactive PRKX protein without kinase activity (D172A), overexpressed from pD172A plasmid or D172A overexpression lentivirus (protein)
chain: MEAPGLAQAAAAESDSRKVAEETPDGAPALCPSPEALSPEPPVYSLQDFDTLATVGTGTFGRVHLVKEKTAKHFFALKVMSIPDVIRLKQEQHVHNEKSVLKEVSHPFLIRLFWTWHDERFLYMLMEYVPGGELFSYLRNRGRFSSTTGLFYSAEIICAIEYLHSKEIVYRALKPENILLDRDGHIKLTDFGFAKKLVDRTWTLCGTPEYLAPEVIQSKGHGRAVDWWALGILIFEMLSGFPPFFDDNPFGIYQKILAGKIDFPRHLDFHVKDLIKKLLVVDRTRRLGNMKNGANDVKHHRWFRSVDWEAVPQRKLKPPIVPKIAGDGDTSNFETYPENDWDTAAPVPQKDLEIFKNF
Regarding B2, the “S214 phosphorylation of tau, Western blot and ELISA” value in data set [1] was “enhanced S214 phosphorylation was not found in pD172A tranfected cell”. Also, the “amount of S214 phosphorylated tau, ELISA, D172A lentivirus MOI 1, 6” value in data set [2] was “D172A overexpression lentivirus and lacZ overexpression lentivirus did not show an enhanced amount of S214 phosphorylated tau”.

The record behind these values is patent publication US20110294144.
